The test addresses T1, BCMA on multiple myeloma cell lines RPMI8226 (low BCMA) and U266 (high BCMA) (human, UniProt Q02223 1-184).
T1 construct: whole, on cells; endogenous expression; also called CD269; TNFRSF17
T1 sequence (looked up): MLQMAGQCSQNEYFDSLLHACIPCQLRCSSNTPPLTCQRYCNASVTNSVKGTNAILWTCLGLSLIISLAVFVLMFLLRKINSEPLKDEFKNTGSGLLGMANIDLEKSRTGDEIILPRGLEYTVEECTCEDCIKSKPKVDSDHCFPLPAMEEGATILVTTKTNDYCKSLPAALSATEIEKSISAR
The experiment in a line: flow cytometry on RPMI8226 cells (low BCMA), anti-his-FITC.

B1: NbBCMA-8 (VHH)
VHH: QVQLVESGGGLVQAGGSLRLSCAASTRTFSSYVMAWFRQVPGKEREFVASRACSGGTPYYADSVKGRFFISRDDAKNTVYLRMNSLKPEDTAVYYCAAASIGATQYDYWGQGTQVIVSS
notes: Expressed in E. coli from PET30a(+); the supernatant of sonicated bacteria was used in flow cytometry; not shown: His tag from the PET30a(+) vector (detected with anti-his-FITC)
Regarding B1, the binding result was “binds”.

B2: NbBCMA-5 (VHH)
VHH: QVQLVETGGGLVQAGGSLRLSCAASGTIFSVYNMGWFRQAPGKQRELVAAITKNGSTSYKDSVKGRFTISTDNAKNTVDLRMSSLKLGDTAVYFCAAWDWDKNQAYWGQGTQVTVSS
notes: as for B1
Turning to B2, the binding result is “binds”.

These data come from patent publication CN117430709A (KANGWEI ZHONGHE ZHONGSHAN BIOLOGICAL PHARMACEUTICAL CO LTD; …, dated 2024).
